Key:
CA24-2人腹水 [1] = experiment: ELISA OD450/630: supernatant of transiently transfected CHO cells diluted 1000-fold, captured on goat anti-mouse IgG, CA24-2 human ascites, HRP-anti-CA24-2 detection; wells without supernatant OD <0.1
CA24-2人腹水 [2] = experiment: ELISA OD450/630, antibody 125 ng/ml captured on goat anti-mouse IgG, CA24-2 human ascites, HRP-labelled same antibody
CA24-2人腹水 [3] = experiment: ELISA OD450/630, antibody 7.813 ng/ml captured on goat anti-mouse IgG, CA24-2 human ascites, HRP-labelled same antibody
CA24-2人腹水 [4] = experiment: ELISA OD450/630, antibody 15.625 ng/ml captured on goat anti-mouse IgG, CA24-2 human ascites, HRP-labelled same antibody
CA24-2人腹水 [5] = experiment: ELISA OD450/630, antibody 62.5 ng/ml captured on goat anti-mouse IgG, CA24-2 human ascites, HRP-labelled same antibody
CA24-2人腹水 [6] = experiment: ELISA OD450/630, antibody 31.25 ng/ml captured on goat anti-mouse IgG, CA24-2 human ascites, HRP-labelled same antibody
CA24-2人腹水 [7] = experiment: ELISA OD450/630, antibody 0 ng/ml (blank well), CA24-2 human ascites, HRP-labelled same antibody

B1: 实施例1的抗CA24-2抗体(WT) (antibody, mouse IgG1, kappa, V domains shown)
VH: EVKLVESGGGLVQPGGSLRLTCATSAFTFSDYYMEWVRQPPGKALEWLGFIRKKADGYTTEYSASIKGRFTISRDDSQNILYLQMNTLRAEDSATYYCARGISTATGVAYWGQGTLVTVSA
VL: DIVMTQSPSSLALSVGQKVTMSCKSSQSIVNTSNQKNYLAWYQQKPGQSPKLLVYWASTRETGVPDRFIGSGSGTDFTLAISSVQAEDLADYYCQQHYSVPFTFGSGTKLEIKR
For B1, the OD450 (CA24-2人腹水 [1]) was over 1 OD, the OD450 (CA24-2人腹水 [2]) was 1.63 OD and the OD450 (CA24-2人腹水 [3]) was 0.246 OD. For the same binder, the OD450 (CA24-2人腹水 [4]) was 0.329 OD, the OD450 (CA24-2人腹水 [5]) was 1.46 OD and the OD450 (CA24-2人腹水 [6]) was 0.734 OD. The OD450 (CA24-2人腹水 [7]) was 0.052 OD.

Source: patent CN114605551A
